Results: PMC8050864

Columns and labels:
[1] = target: FL PFV intasome (tetramer of full-length prototype foamy virus integrase bound to two viral DNA ends) (prototype foamy virus); assay: pull-down
[2] = target: PFV IN(ΔCTD) intasome: full-length PFV IN(K120E) at the inner protomers, PFV IN(D273K, ΔCTD) at the outer protomers (prototype foamy virus); assay: pull-down

## 601 nucleosome treated with trypsin to remove the histone tails (from UniProt P04908 1-130; O60814 1-126; P68431 1-136; P62805 1-103) (complex)
[1]
  percent of the lane's Coomassie signal in the TL H4 band on the beads: 11.2%
[2]
  percent of the lane's Coomassie signal in the TL H4 band on the beads: 2.5%
